Reference: US20210292396A1
Substitutions are numbered along the chain they refer to.

B1: ePGT121.15.H1.L1 (antibody, V domains shown)
VH: QMQLQESGPGLVKPGETLSLTCSVSGASISSSYWSWLRETPGKGLEWIGYTHHSGDTNYAPSLKSRVHLGLHPSKNQVSLSLTSVTAADTAVYYCARTLHGRRIYGVVAFNEWFTYFYWEVWGNGTQVTVSS
VL: SDISVAPGETVRISCGGESIGSRAVQWYQHRAGQAPKLIIYNNQDRPPGIPERFSGSPDIDFGTTATLTITNVEAGDEATYYCHIWDSRRPTNWVFGGGTTLTVL
B2: ePGT121.15.H6.L1 (antibody, V domains shown)
VH: B1 VH with W113F, N124K
VL: B1 VL

How the values were obtained:
[1] = molecular target: HIV Env of the 113-member cross-clade virus panel (Table 6); assay: cell-based or functional assay
[2] = molecular target: HIV Env of the 106-virus cross-clade panel (Table 5); assay: cell-based or functional assay

| Binder | Breadth [1] [%] | GeoMean [1] | % Breadth [2] [%] | Median IC50 [2] [ng/mL] | breadth of neutralization at an IC80 of 0.01 microg/ml [2] [%] | median IC80, 106-virus panel [2] [ng/mL] | neutralization breadth (IC80), 106-virus panel [2] [%] |
| --- | --- | --- | --- | --- | --- | --- | --- |
| B1 | 76 | 0.0061 | 75 | 1 | 50 | 9.3 | 69 |
| B2 | 77 | 0.0048 |  |  |  |  |  |
